This is an account of results in patent US20210355229A1 (JIANGSU HENGRUI MEDICINE, published 2021).

The chains are these.
T1: human OX40-FC-biotin (human OX40 recombinant protein with Fc tag, Acro Biosystems OX40-H5255, labeled with … (human, UniProt P43489 29-216, labeled with biotin (site not stated)))
T1 construct: range 29-216; Bought (Acro Biosystems OX40-H5255; printed once as OXO-H5255), expressed in HEK293; also called human Bio-OX40-FC; not shown: Fc tag of the bought protein
T1 sequence (looked up): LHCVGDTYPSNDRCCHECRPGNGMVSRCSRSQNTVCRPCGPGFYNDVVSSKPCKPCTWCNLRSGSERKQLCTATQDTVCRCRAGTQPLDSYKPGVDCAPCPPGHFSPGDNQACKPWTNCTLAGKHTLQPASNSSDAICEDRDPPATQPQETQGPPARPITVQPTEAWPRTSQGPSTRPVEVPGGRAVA

B1: humanized antibody hu4B5-V1 (antibody, human IgG1, V domains shown)
VH: QVQLQESGPGLVKPSETLSLTCTVSGFSLTSYGLHWIRQPPGKGLEWIGVIWSGGSTDYNAAFISRVTISVDTSKNQFSLKLSSVTAADTAVYYCAREEYDVWGQGTTVTVSS
VL: DIQMTQSPSSLSASVGDRVTITCRASQDISNYLNWYQQKPGKVPKLLIYYTSRLHSGVPSRFSGSGSGTDFTLTISSLQPEDVATYYCQQGNTLPWTFGGGTKVEIK
notes: hu4B5 VH0 + hu4B5 VL0
B2: humanized antibody hu4B5-V14 (antibody, human IgG1, V domains shown)
VH: QVQLKESGPGLVKPSETLSLTCTVSGFSLTSYGLHWFRQPPGKGLEWLGVIWSGGSTDYNAAFISRLTISKEDSKSQVSLKLSSVTAADTAVYYCAREEYDVWGQGTTVTVSS
VL: DIQMTQSPSSLSASVGDRVTITCRASQDISNYLNWYQQKPGGTVKLLIYYTSRLHSGVPSRFSGSGSGTDYTLTISSLQPEDVATYFCQQGNTLPWTFGGGTKVEIK
notes: hu4B5 VH4 + hu4B5 VL4; human IgG1 / human Kappa constant regions
B3: humanized antibody hu4B5-V21 (antibody, human IgG1, V domains shown)
VH: QVQLKESGPGLVKPSETLSLTCTVSGFSLTSYGLHWFRQPPGKGLEWIGVIWSGGSTDYNAAFISRVTISKEDSKSQVSLKLSSVTAADTAVYYCAREEYDVWGQGTTVTVSS
VL: DIQMTQSPSSLSASVGDRVTITCRASQDISNYLNWYQQKPGGVPKLLIYYTSRLHSGVPSRFSGSGSGTDYTLTISSLQQEDVATYYCQQGNTLPWTFGGGTKVEIK
notes: hu4B5 VH3 + hu4B5 VL3; human IgG1 / human Kappa constant regions
B4: humanized antibody hu4B5-V15 (antibody, human IgG1, V domains shown)
VH: QVQLQESGPGLVKPSETLSLTCTVSGFSLTSYGLHWIRQPPGKGLEWIGVIWSGGSTDYNAAFISRVTISVDTSKNQFSLKLSSVTAADTAVYYCAREEYDVWGQGTTVTVSS
VL: DIQMTQSPSSLSASVGDRVTITCRASQDISNYLNWYQQKPGGVPKLLIYYTSRLHSGVPSRFSGSGSGTDYTLTISSLQPEDVATYYCQQGNTLPWTFGGGTKVEIK
notes: hu4B5 VH0 + hu4B5 VL2; human IgG1 / human Kappa constant regions
B5: humanized antibody hu4B5-V19 (antibody, human IgG1, V domains shown)
VH: QVQLQESGPGLVKPSETLSLTCTVSGFSLTSYGLHWIRQPPGKGLEWIGVIWSGGSTDYNAAFISRVTISKEDSKNQFSLKLSSVTAADTAVYYCAREEYDVWGQGTTVTVSS
VL: DIQMTQSPSSLSASVGDRVTITCRASQDISNYLNWYQQKPGGVPKLLIYYTSRLHSGVPSRFSGSGSGTDYTLTISSLQQEDVATYYCQQGNTLPWTFGGGTKVEIK
notes: hu4B5 VH1 + hu4B5 VL3; human IgG1 / human Kappa constant regions
B6: humanized antibody hu4B5-V2 (antibody, human IgG1, V domains shown)
VH: QVQLQESGPGLVKPSETLSLTCTVSGFSLTSYGLHWIRQPPGKGLEWIGVIWSGGSTDYNAAFISRVTISKEDSKNQFSLKLSSVTAADTAVYYCAREEYDVWGQGTTVTVSS
VL: DIQMTQSPSSLSASVGDRVTITCRASQDISNYLNWYQQKPGKVPKLLIYYTSRLHSGVPSRFSGSGSGTDFTLTISSLQPEDVATYYCQQGNTLPWTFGGGTKVEIK
notes: hu4B5 VH1 + hu4B5 VL0; human IgG1 / human Kappa constant regions
B7: humanized antibody hu4B5-V23 (antibody, human IgG1, V domains shown)
VH: QVQLQESGPGLVKPSETLSLTCTVSGFSLTSYGLHWIRQPPGKGLEWIGVIWSGGSTDYNAAFISRVTISKEDSKNQFSLKLSSVTAADTAVYYCAREEYDVWGQGTTVTVSS
VL: DIQMTQSPSSLSASVGDRVTITCRASQDISNYLNWYQQKPGGTVKLLIYYTSRLHSGVPSRFSGSGSGTDYTLTISSLQPEDVATYFCQQGNTLPWTFGGGTKVEIK
notes: hu4B5 VH1 + hu4B5 VL4; human IgG1 / human Kappa constant regions
B8: humanized antibody hu4B5-V6 (antibody, human IgG1, V domains shown)
VH: QVQLQESGPGLVKPSETLSLTCTVSGFSLTSYGLHWIRQPPGKGLEWIGVIWSGGSTDYNAAFISRVTISVDTSKNQFSLKLSSVTAADTAVYYCAREEYDVWGQGTTVTVSS
VL: DIQMTQSPSSLSASVGDRVTITCRASQDISNYLNWYQQKPGKVPKLLIYYTSRLHSGVPSRFSGSGSGTDYTLTISSLQPEDVATYYCQQGNTLPWTFGGGTKVEIK
notes: hu4B5 VH0 + hu4B5 VL1; human IgG1 / human Kappa constant regions
B9: humanized antibody hu4B5-V8 (antibody, human IgG1, V domains shown)
VH: QVQLQESGPGLVKPSETLSLTCTVSGFSLTSYGLHWIRQPPGKGLEWIGVIWSGGSTDYNAAFISRVTISKEDSKNQFSLKLSSVTAADTAVYYCAREEYDVWGQGTTVTVSS
VL: DIQMTQSPSSLSASVGDRVTITCRASQDISNYLNWYQQKPGKVPKLLIYYTSRLHSGVPSRFSGSGSGTDYTLTISSLQPEDVATYYCQQGNTLPWTFGGGTKVEIK
notes: hu4B5 VH1 + hu4B5 VL1; human IgG1 / human Kappa constant regions
B10: humanized antibody hu4B5-V16 (antibody, human IgG1, V domains shown)
VH: QVQLQESGPGLVKPSETLSLTCTVSGFSLTSYGLHWIRQPPGKGLEWIGVIWSGGSTDYNAAFISRVTISKEDSKNQFSLKLSSVTAADTAVYYCAREEYDVWGQGTTVTVSS
VL: DIQMTQSPSSLSASVGDRVTITCRASQDISNYLNWYQQKPGGVPKLLIYYTSRLHSGVPSRFSGSGSGTDYTLTISSLQPEDVATYYCQQGNTLPWTFGGGTKVEIK
notes: hu4B5 VH1 + hu4B5 VL2; human IgG1 / human Kappa constant regions
B11: humanized antibody hu4B5-V4 (antibody, human IgG1, V domains shown)
VH: QVQLKESGPGLVKPSETLSLTCTVSGFSLTSYGLHWFRQPPGKGLEWIGVIWSGGSTDYNAAFISRVTISKEDSKSQVSLKLSSVTAADTAVYYCAREEYDVWGQGTTVTVSS
VL: DIQMTQSPSSLSASVGDRVTITCRASQDISNYLNWYQQKPGKVPKLLIYYTSRLHSGVPSRFSGSGSGTDFTLTISSLQPEDVATYYCQQGNTLPWTFGGGTKVEIK
notes: hu4B5 VH3 + hu4B5 VL0; human IgG1 / human Kappa constant regions
B12: humanized antibody hu4B5-V25 (antibody, human IgG1, V domains shown)
VH: QVQLKESGPGLVKPSETLSLTCTVSGFSLTSYGLHWFRQPPGKGLEWIGVIWSGGSTDYNAAFISRVTISKEDSKSQVSLKLSSVTAADTAVYYCAREEYDVWGQGTTVTVSS
VL: DIQMTQSPSSLSASVGDRVTITCRASQDISNYLNWYQQKPGGTVKLLIYYTSRLHSGVPSRFSGSGSGTDYTLTISSLQPEDVATYFCQQGNTLPWTFGGGTKVEIK
notes: hu4B5 VH3 + hu4B5 VL4; human IgG1 / human Kappa constant regions
B13: humanized antibody hu4B5-V18 (antibody, human IgG1, V domains shown)
VH: QVQLQESGPGLVKPSETLSLTCTVSGFSLTSYGLHWIRQPPGKGLEWIGVIWSGGSTDYNAAFISRVTISVDTSKNQFSLKLSSVTAADTAVYYCAREEYDVWGQGTTVTVSS
VL: DIQMTQSPSSLSASVGDRVTITCRASQDISNYLNWYQQKPGGVPKLLIYYTSRLHSGVPSRFSGSGSGTDYTLTISSLQQEDVATYYCQQGNTLPWTFGGGTKVEIK
notes: hu4B5 VH0 + hu4B5 VL3; human IgG1 / human Kappa constant regions
B14: humanized antibody hu4B5-V22 (antibody, human IgG1, V domains shown)
VH: QVQLQESGPGLVKPSETLSLTCTVSGFSLTSYGLHWIRQPPGKGLEWIGVIWSGGSTDYNAAFISRVTISVDTSKNQFSLKLSSVTAADTAVYYCAREEYDVWGQGTTVTVSS
VL: DIQMTQSPSSLSASVGDRVTITCRASQDISNYLNWYQQKPGGTVKLLIYYTSRLHSGVPSRFSGSGSGTDYTLTISSLQPEDVATYFCQQGNTLPWTFGGGTKVEIK
notes: hu4B5 VH0 + hu4B5 VL4; human IgG1 / human Kappa constant regions
B15: humanized antibody hu4B5-V10 (antibody, human IgG1, V domains shown)
VH: QVQLKESGPGLVKPSETLSLTCTVSGFSLTSYGLHWFRQPPGKGLEWIGVIWSGGSTDYNAAFISRVTISKEDSKSQVSLKLSSVTAADTAVYYCAREEYDVWGQGTTVTVSS
VL: DIQMTQSPSSLSASVGDRVTITCRASQDISNYLNWYQQKPGKVPKLLIYYTSRLHSGVPSRFSGSGSGTDYTLTISSLQPEDVATYYCQQGNTLPWTFGGGTKVEIK
notes: hu4B5 VH3 + hu4B5 VL1; human IgG1 / human Kappa constant regions

This experiment has as its target T1, human OX40-FC-biotin (human OX40 …). Nature of the experiment: capture ELISA, biotin-OX40-Fc. The method, then: 20xPBS buffer was diluted to 1 xwith deionized water. […] 100 μL of the diluted primary antibody was added to each well (the antibody to be tested was 5-fold diluted from the concentration of 10000 ng/ml, resulting in seven gradients, namely 10000 ng/ml, 2000 ng/ml, 400 ng/ml, 80 ng/ml, 16 ng/ml, 3.2 ng/ml, and 0.64 ng/ml, blank wells merely contained dilution solution, i.e., 2.5% skimmed milk in PBST), and incubated at 37° C. for 40 minutes. The plate was washed for 4 times with PBST, human OX40-FC-biotin (Acro biosystem, OXO-H5255, labeled biotin) was diluted with 2.5% skimmed milk in PBST, 100 μl was added to each well, incubated at 37° C. for 40 min, and the plate was washed for 4 times with PB ST. 100 μL TMB developing solution was added to each well, incubated for 3-15 minutes in dark at room temperature, 50 μl stop solution (1M sulfuric acid) was added to each well. The parameters were set for the microplate reader, the OD value was read at 450-630nm, and the test data were saved.
On the technique in general: An ELISA detects its analyte on a solid surface through an enzyme-linked reagent.
As for B1, the EC50 was 0.59 µg/mL.
Still for that read-out and setting: the figure for B2 is 0.536 µg/mL.
In the case of B3, the binding result is listed as “binds”.
For the molecule B4, the binding result is “binds”.
On the same count and under the same terms, in the case of B5 it was “binds”; in that of B6, “binds”.
Still for that read-out and setting: in the case of B7 it was “binds”.
Still for that read-out and setting: the entry for B8 is “binds”.
Take B9: the binding result is “binds”.
The same measure, in the same setting: the entry for B10 is “binds”.
Consider B11, for which the binding result is recorded as “binds”.
On the same count and under the same terms, the entry for B12 is “binds”; for B13 it is “binds”; for B14 it is “binds”.
In the case of B15, the EC50 was found to be 0.76 µg/mL.

For orientation: EC50 means the concentration at which the effect is half-maximal.
